Experimental data taken from article PMC6749071, “Identification of Lysine Histidine Transporter 2 as an 1-Aminocyclopropane Carboxylic Acid Transporter in Arabidopsis thaliana by Transgenic Complementation Approach” (Frontiers in Plant Science, 2019).

Substrate: NC1(C(=O)O)CC1
Assay: two-electrode voltage clamp, inward current in Xenopus oocytes
Assay type: cell-based, Arabidopsis thaliana
Conditions: pH 5.6, -80 mV, room temperature, Michaelis-Menten fit

Protein | K0.5 [mM]
LHT2 (Arabidopsis thaliana) (protein, cDNA in pGEM-HE, cRNA injected into Xenopus laevis oocytes) MGNSEMSASEVAAAKQKNVDDWLPITSSRNAKWWYSAFHNVTAMVGAGVLSLPYAMSNLGWGPGVTIMVMSWIITLYTLWQMVEMHEIVPGKRLDRYHELGQHAFGEKLGLWIVVPQQLIVEVGVDIVYMVTGGASLKKVHQLVCPDCKEIRTTFWIMIFASVHFVISHLPNFNSISIISLAAAVMSLTYSTIAWAASVHKGVHPDVDYSPRASTDVGKVFNFLNALGDVAFAYAGHNVVLEIQATIPSTPEMPSKVPMWRGVIVAYIVVAICYFPVAFLGYYIFGNSVDDNILITLEKPIWLIAMANMFVVIHVIGSYQIFAMPVFDMLETVLVKKMNFNPSFKLRFITRSLYVAFTMIVAICVPFFGGLLGFFGGFAFAPTTYYLPCIMWLVLKKPKRFGLSWTANWFCIIVGVLLTILAPIGGLRTIIINAKTYKFFS | 59.1 ± 6.6
LHT1 (Arabidopsis thaliana) (protein, cDNA in pGEM-HE, cRNA injected into Xenopus laevis oocytes) MVAQAPHDDHQDDEKLAAARQKEIEDWLPITSSRNAKWWYSAFHNVTAMVGAGVLGLPYAMSQLGWGPGIAVLVLSWVITLYTLWQMVEMHEMVPGKRFDRYHELGQHAFGEKLGLYIVVPQQLIVEIGVCIVYMVTGGKSLKKFHELVCDDCKPIKLTYFIMIFASVHFVLSHLPNFNSISGVSLAAAVMSLSYSTIAWASSASKGVQEDVQYGYKAKTTAGTVFNFFSGLGDVAFAYAGHNVVLEIQATIPSTPEKPSKGPMWRGVIVAYIVVALCYFPVALVGYYIFGNGVEDNILMSLKKPAWLIATANIFVVIHVIGSYQIYAMPVFDMMETLLVKKLNFRPTTTLRFFVRNFYVAATMFVGMTFPFFGGLLAFFGGFAFAPTTYFLPCVIWLAIYKPKKYSLSWWANWVCIVFGLFLMVLSPIGGLRTIVIQAKGYKFYS | 60.9 ± 8.2
